Laboratory results from the DeepSol protein solubility set.

Experiment: soluble on expression in E. coli; label from the status in PepcDB or PDB records

Row | Sequence | soluble on expression in E. coli
1 | MSLKFIGECRDRWPIAVLCRTLEVTRAAYYRFAGRGPTVTEIKQTQIIQAVKEIRLEKHHDAYGSPRMQRAIVKRGVVCCRNTVAKCMRHAGIQANRRTKFRISTTDSNHDQPIASNLLGQNFTTEAINRVWLTDITYIPTQEGSTYLCAFVDLHSRKIVSWKTSRNMDSELVVGAFDQALTFRKPNAGLIVHSDRGSQFASDHFRRRLAASGLVQSMSRRGNCYDNAPMESFFKSYKTEEAQQIYDTHEHATRGVSDYIERFYNPHRLHSSLGYLSPIDFEQAIKEPSLVSESEGHHHHHH | not soluble
2 | MSLKGAQILVVEDELIVGMMIKLKLAKMGYCVSCMASTGADAVAMVEKVRPELVLMDIRLKGSLDGVEAAMMIRKISNIPIVFITADSSLETRERAELACPQGFLLKPFMDEELGSLVRSVFSNSMGGASAVNANEGHHHHHH | not soluble
3 | MSLKGNLDVIPQPQEIVLARDTTPFIIDRSTTIVYPATNEKMHRTADFLATFIKEMTGTEVHVSDKEKSSNAIILAVDSTMGHPEGYKLQITPEKVLLTGGSEAGVFYGIQTIHKALPILKDGKVAAALPAGTVTDFPRFRYRGFMIDVGRHFFPVSYLKQMIDLMALHNINYFHWHLTEDQGWRIEIKKYPKLTEIGSKRDSTIIDWETKKFDGKPHSGFYTQDEAREIVRYAADRFITVVPEIDLPGHTTAALASYPELGCTGGPYKVLCSFGVFPDVLCAGNDQTLQFTKDVLDEIMDIFPSEYIHIGGDECPKSRWEKCPKCQAKIKELGIKALPKHSKENQLQTYFMSELEKEINAHGRRMLGWDEVLEGGLTPNSTIMSWRGIQGGIEAARQHHDVIMTPIQRLYFSNPRINKMTGFEWMNRVYNFEPVPAELTDAEKKFVIGTQGCIWTEWTADSTKMEWQILPRMAALSEIQWTLPEHKNFERFMERLPEMLKIYSSLDYGYREDVFAADTLKTHKEGHHHHHH | soluble
4 | MSLKGVSYTSEQKTRIVLEMLKEEETLAQIASRYQVTSQTLNSWKRQFLANASLAFEPAKALQEYKDQIQSKEQEIEELQKQLGKSVAEKEWLAKKLEGLDLSNKKALVESKPETISIARQCELLGISRSAYYYKPISLSRANLQIMHAIGEIATDNAEYGYRFIHQQLLEDGYRIGKERVLKYMRVMNLRALYPKKRKHTSIHNLEYKRYPYLLSQYHNSKKQVVVDRPGEVWSGDITYIRMNGGFMYLCAIIDWHSKAILAYKISNTMDASLAVDTLKEALQTHPAPRIFNSDQGSQYTSEEHTRLLEEHQIAISMNGKGRSIDNIAIERFFRTLKHSSIYINDYRTIKELKEGIKNYIHKYNFKRFHSSIEYRKPMNVYLEAQTVAEGHHHHHH | not soluble
5 | MSLKHGRTRLIGLIIADITNPYSVNVMSGIEAACREKGFTLLVCNTNNELDQELHYLDLLRSYQVEGIVVNAVGMREDGLNRLQQSALPMVLIDRKIPDFACDVVGLDNAQAATTATEHLVEKGFEAILFLSEPLGSVNTRRERLSAFRATLARHHGVVAENAEVQLNDGAMLDNVLRQFHARHRGMRKAVISANGALTLQVARALKRVGLIWGSDIGLLGFDELEWAELAGVGITTLKQPTWQIGYAAVEQVIRRIAGTNDPIRERVFSGELIVRGSTSREGHHHHHH | soluble
6 | MSLKHMLIAGGGIGGLSAAISLRKAGFSVTLCEAASENRKTGAGILQPQNALAVLKELGVFEDCCKHGFQTEWFKTFDEQGNLLFQVSESFLDDSLPGRNNILRKTLNDILMKHAEAVGVDIKWGKKVVAYEETAESVTALCEDGEKMQADILAGFDGIHSVVRDKMLQKETEKEHLGMGAWRFYIELPDYTFEDATFMYRSGDTQIGVVPLAQHAGYVFVLQPCTSDYWDEEDTRFDRVKEILSGFRGLDFVTKHMSKQHPVIFNKLEQVAVQEPWHKGRVIIGGDAAHAGAPTLAQGAAMAIEDAIVLAEELQNHADHETALQAYYKRRAPRALKVQNLSSEIVRRRLKGEPGAEELIGECYAVLREGYEGGSHHHHHH | soluble
7 | MSLKIAMIGLGDIAQKAYLPVLAQWPDIELVLCTRNPKVLGTLATRYRVSATCTDYRDVLQYGVDAVMIHAATDVHSTLAAFFLHLGIPTFVDKPLAASAQECENLYELAEKHHQPLYVGFNRRHIPLYNQHLSELAQQECGALRSLRWEKHRHALPGDIRTFVFDDFIHPLDSVNLSRQCNLDDLHLTYHMSEGLLARLDVQWQTGDTLLHASMNRQFGITTEHVTASYDNVAYLFDSFTQGKMWRDNQESRVALKDWTPMLASKGFDAMVQDWLQVAAAGKLPTHIIERNLASHQLAEAICQQITQQVTKGEGGSHHHHHH | soluble
8 | MSLKIILVEDEENLARLLKEAIGDNFHSFTVAKDGIEGIEFFKKIRPDIVITDIMMPNLDGLKMAKELKRINPNIPIIILSAFSEKEKLLSAIDVGITKYFIKPFDAEELLEYISSITSRIENKILKLSDCYIFNKNTSSLYKNEKYIALSKNDIKFLYLLLDSKNRTVDDISIKEALWGGDASDERLRTFIKRFREKTSKMLIKNIKGFGYQLLLNEGHHHHHH | not soluble
9 | MSLKIKLETYYVCKGELAMNPEVSQLLEQIELRKDELLELTKTLIRFETPAPPARNTNEAQQFVADFLRKRNFSVDKWDVYPNDPNVVGVKKGIESETHKSLIINGHMDVAEVSADEAWEKNPFEPFIKDGWLVGRGAADMKGGLAGALFAIQLLEEAGIELPGDLIFQSVIGEEVGEAGTLQCCRRGYDADFAVVVDTSDLHMQGQGGVITGWITVKSPQTFHDATRRQMIHAGGRLFGASAIEKMMKIVQSLQELERHWAVMKTYEGYPSGTTTINPAVIEGGRHAAFIADECRLWITVHFYPNETHEQIIKEIEEYIGKVAAADPWLSENPPQFKWGGESMIVDRGEIFPSLEIDSEHAAVKTLSSVHESVLSKHAILDMSATVTDGGWFSEFHIPAVIYGPGTLEEAHSINEKVEVEQLIEFTKVITAFIYEWCHTKEGHHHHHH | soluble
10 | MSLKIKVYLYTRVSTSIQIEGYSLEAQKSRMKAFAIYNDYEIVGEYEDAGKSGKSIEGRIQFNRMMEDIKSGKDGVSFVLVFKLSRFARNAADVLSTLHIMQDYGVNLICVEDGIDSSKDAGKLMISVLSAVAEIERENIRIQTMEGRIQKAREGKWNGGFAPYGYKLEDGKLFINEEEAVAIRTIFDQYVNTTIGANGISKYLENHGIRKIPRQNGKNPLFDAGLIRKILKNPVYNGKIAFGRRTLEKVHGTRNEYKQVEQDEYLISEGIHEAIVSDEVWQAAQVKLKSQAKKYEHVNKGKDTRTHLLSGIVKCPICGVGMFGNKCIKKKKDGTKYKDFYYYGCNHRQMIRGHKCTFSKQIREELLDDAVAEVIVKIVSNPKFASMMQEKINMKVDTSEIEKEIDNYQKELRKSHSTKFKLIEEIDNLDVEDKHYKRRKQDLDDRLYRMYDKIDELESSLIDAKAKKQTIEAEKLTGDNIYKVLIYFDKLYKVMNDVERRQLISALISEIQVYEEKQSNGQWLKSITFKLPIIEENLNIDLDNDEQVECVSLLEKRSEGHHHHHH | soluble
11 | MSLKILFSPSESKNENCTKNPIDENSFIFKELFPYRMEALKHYGEFIKNASLKNLQELFGIKNENEIDKFKHDLKQAPTQEAIMLYTGVSYEYLNFKALDKKSQAYILENTLIFSNLFGVVRANDTLPFYKFKQGAKIGNFTIEKFYKEHFSKALDEYLENEEILDLRAGFYDKFYTPKKKFYTYKFVKNGKVISHFAKAYRGILLSISAKNQVKNNKELLANLPSNLKLKEIQIKGLKEEIALEILDEGHHHHHH | soluble
12 | MSLKILFVAAEGAPFSKTGGLGDVIGALPKSLVKAGHEVAVILPYYDMVEAKFGNQIEDVLHFEVSVGWRRQYCGIKKTVLNGVTFYFIDNQYYFFRGHVYGDFDDGERFAFFQLAAIEAMERIDFIPDLLHVHDYHTAMIPFLLKEKYRWIQAYEDIETVLTIHNLEFQGQFSEGMLGDLFGVGFERYADGTLRWNNCLNWMKAGILYANRVSTVSPSYAHEIMTSQFGCNLDHILKMESGKVSGIVNGIDADLYNPQTDALLDYHFNQEDLSGKAKNKAKLQERVGLPVRADVPLVGIVSRLTRQKGFDVVVESLHHILQEDVQIVLLGTGDPAFEGAFSWFAQIYPDKLSTNITFDVKLAQEIYAACDLFLMPSRFEPCGLSQMMAMRYGTLPLVHEVGGLRDTVRAFNPIEGSGTGFSFDNLSPYWLNWTFQTALDLYRNHPDIWRNLQKQAMESDFSWDTACKSYLDLYHSLVNEGHHHHHH | soluble
